The experiment deals with HLA-A*02:01 (Homo sapiens, UniProt P04439, D140Y/D185E/D98H/E176V/E277Q/G131W/G231S/I119V/I121R/I166T/I218V/L300P/L318F/N151K/N90K/P208A/P217A/Q86G/Q94H/R138H/R169H/T345S). In words: MHC binding assay (UV-ligand exchange, β2m ELISA, peptide exchange yield). Particulars: MHC class I binding score; binding to HLA-A*02:01 ranged by peptide exchange yield (UV-ligand exchange, β2m ELISA). The method in brief: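 Binding is expressed as peptide exchange yield: stabilized MHC complexes were quantified by β2m ELISA, with a 450 nm TMB read-out on streptavidin-coated plates. Complexes came from UV-ligand exchange, where UV irradiation cleaves a photolabile peptide so the candidate peptide can load.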
(An ELISA detects its analyte on a solid surface through an enzyme-linked reagent.)

Regarding “481 (GLIEDYEALL; listed as Homo sapiens) [compound 481]”, the Peptide exchange entry is given as “″+++″ (≧50% = +++)”. The result for “257 (SIFSAFLSV; listed as Homo sapiens) [compound 257]” reads “″+++″ (≧50% = +++)”; that for “104 (STMEQNFLL; listed as Homo sapiens) [compound 104]”, “″++++″ (≧75% = ++++)”.

Consider “601 (SAFPFPVTV; listed as Homo sapiens) [compound 601]”, for which the Peptide exchange entry is recorded as “″+++″ (≧50% = +++)”. The result for “212 (ALWDQDNLSV; listed as Homo sapiens) [compound 212]” reads “″++″ (≧20% = ++)”; that for “571 (LLLTTIPQI; listed as Homo sapiens) [compound 571]”, “″+++″ (≧50% = +++)”.

For “44 (ILDPISSGFLL; listed as Homo sapiens) [compound 44]”, the Peptide exchange result is given as “″++″ (≧20% = ++)”.

As to “244 (SLFGGTEITI; listed as Homo sapiens) [compound 244]”, the Peptide exchange result is “″+++″ (≧50% = +++)”. To “465 (QLCDLNAEL; listed as Homo sapiens) [compound 465]” belongs “″+++″ (≧50% = +++)”; to “233 (VLSETLYEL; listed as Homo sapiens) [compound 233]”, “″++″ (≧20% = ++)”; to “495 (FIFSEKPVFV; listed as Homo sapiens) [compound 495]”, “″+++″ (≧50% = +++)”. To “172 (VLYSYTIITV; listed as Homo sapiens) [compound 172]” belongs “″++″ (≧20% = ++)”; to “388 (SLTIDGIRYV; listed as Homo sapiens) [compound 388]”, “″+++″ (≧50% = +++)”.

Regarding “26 (ALLELAEEL; listed as Homo sapiens) [compound 26]”, the Peptide exchange entry is “″+++″ (≧50% = +++)”. Turning to “487 (LLINSVFHV; listed as Homo sapiens) [compound 487]”, the Peptide exchange result was “″+++″ (≧50% = +++)”. Turning to “192 (KMLDGASFTL; listed as Homo sapiens) [compound 192]”, the Peptide exchange entry is listed as “″+++″ (≧50% = +++)”. For “387 (ALFQATAEV; listed as Homo sapiens) [compound 387]”, the Peptide exchange entry is on record as “″++++″ (≧75% = ++++)”. To “520 (LAVHPSGVAL; listed as Homo sapiens) [compound 520]” belongs “″+″ (≧10% = +)”; to “25 (FLPDEPYIKV; listed as Homo sapiens) [compound 25]”, “″+++″ (≧50% = +++)”. Regarding “401 (ILLDDTGLAYI; listed as Homo sapiens) [compound 401]”, the Peptide exchange result is on record as “″+++″ (≧50% = +++)”.

Take “45 (SLWQDIPDV; listed as Homo sapiens) [compound 45]”: the Peptide exchange result is on record as “″+++″ (≧50% = +++)”. The result for “6 (VLVSDGVHSV; listed as Homo sapiens) [compound 6]” reads “″+++″ (≧50% = +++)”; that for “289 (VLLEIEDLQV; listed as Homo sapiens) [compound 289]”, “″++++″ (≧75% = ++++)”. The result for “509 (FLFDTKPLIV; listed as Homo sapiens) [compound 509]” reads “″+++″ (≧50% = +++)”. To “563 (WLLPYNGVTV; listed as Homo sapiens) [compound 563]” belongs “″+++″ (≧50% = +++)”.

In the case of “311 (RLYTGMHTV; listed as Homo sapiens) [compound 311]”, the Peptide exchange entry was “″+++″ (≧50% = +++)”. Consider “596 (ALLDQTKTLAESAL; listed as Homo sapiens) [compound 596]”, for which the Peptide exchange result is “″+++″ (≧50% = +++)”. The result for “524 (ALIENLTHQI; listed as Homo sapiens) [compound 524]” reads “″++″ (≧20% = ++)”. Take “270 (LLLDEEGTFSL; listed as Homo sapiens) [compound 270]”: the Peptide exchange result is listed as “″++″ (≧20% = ++)”. The result for “30 (LILDWVPYI; listed as Homo sapiens) [compound 30]” reads “″+++″ (≧50% = +++)”. The result for “130 (FLWNGEDSALL; listed as Homo sapiens) [compound 130]” reads “″+++″ (≧50% = +++)”. To “562 (YLEELPEKLKL; listed as Homo sapiens) [compound 562]” belongs “″+++″ (≧50% = +++)”; to “12 (SLWPDPMEV; listed as Homo sapiens) [compound 12]”, “″+++″ (≧50% = +++)”.

Take “412 (YLDDLNEGVYI; listed as Homo sapiens) [compound 412]”: the Peptide exchange entry is on record as “″++″ (≧20% = ++)”. To “356 (KLLGKLPEL; listed as Homo sapiens) [compound 356]” belongs “″+++″ (≧50% = +++)”. Turning to “129 (GLLDGGVDILL; listed as Homo sapiens) [compound 129]”, the Peptide exchange entry was “″+++″ (≧50% = +++)”. To “342 (HIYDKVMTV; listed as Homo sapiens) [compound 342]” belongs “″+++″ (≧50% = +++)”; to “602 (YLLEQIKLIEV; listed as Homo sapiens) [compound 602]”, “″++++″ (≧75% = ++++)”. To “320 (KMFEFVEPLL; listed as Homo sapiens) [compound 320]” belongs “″++++″ (≧75% = ++++)”; to “486 (AVMESIQGV; listed as Homo sapiens) [compound 486]”, “″+++″ (≧50% = +++)”. As for “164 (ALLPQPKNLTV; listed as Homo sapiens) [compound 164]”, the Peptide exchange entry is “″+++″ (≧50% = +++)”. The result for “466 (VLIANLEKL; listed as Homo sapiens) [compound 466]” reads “″++++″ (≧75% = ++++)”; that for “197 (ALGPEGGRV; listed as Homo sapiens) [compound 197]”, “″++″ (≧20% = ++)”; that for “281 (ILRESTEEL; listed as Homo sapiens) [compound 281]”, “″+++″ (≧50% = +++)”.

“469 (YLASDEITTV; listed as Homo sapiens) [compound 469]”: the Peptide exchange entry is on record as “″+++″ (≧50% = +++)”. The result for “440 (ALADGVTMQV; listed as Homo sapiens) [compound 440]” reads “″++″ (≧20% = ++)”.

On to “474 (YLDPALELGPRNV; listed as Homo sapiens) [compound 474]”, for which the Peptide exchange entry is “″+++″ (≧50% = +++)”.

With “409 (LLDAMNYHL; listed as Homo sapiens) [compound 409]”, the Peptide exchange result is recorded as “″++″ (≧20% = ++)”. To “1 (SLMEPPAVLLL; listed as Homo sapiens) [compound 1]” belongs “″+++″ (≧50% = +++)”.

As to “301 (FLVEDLVDSL; listed as Homo sapiens) [compound 301]”, the Peptide exchange entry is on record as “″+++″ (≧50% = +++)”.

On to “527 (FLLEPGNLEV; listed as Homo sapiens) [compound 527]”, for which the Peptide exchange result is recorded as “″++++″ (≧75% = ++++)”. For “587 (VMNDRLYAI; listed as Homo sapiens) [compound 587]”, the Peptide exchange entry is “″+++″ (≧50% = +++)”. The result for “149 (NLLELFVQL; listed as Homo sapiens) [compound 149]” reads “″+++″ (≧50% = +++)”; that for “85 (KMSELRVTL; listed as Homo sapiens) [compound 85]”, “″+++″ (≧50% = +++)”. In the case of “179 (KVLNELYTV; listed as Homo sapiens) [compound 179]”, the Peptide exchange result is given as “″+++″ (≧50% = +++)”. For “214 (FLLDLDPLLL; listed as Homo sapiens) [compound 214]”, the Peptide exchange entry is listed as “″+++″ (≧50% = +++)”. Regarding “508 (ILAQEQLVVGV; listed as Homo sapiens) [compound 508]”, the Peptide exchange result is “″+++″ (≧50% = +++)”. To “407 (YLMDLINFL; listed as Homo sapiens) [compound 407]” belongs “″+++″ (≧50% = +++)”; to “132 (LLVEQPPLAGV; listed as Homo sapiens) [compound 132]”, “″+++″ (≧50% = +++)”; to “558 (GLLENIPRV; listed as Homo sapiens) [compound 558]”, “″+++″ (≧50% = +++)”.

For “327 (GLAPFTEGISFV; listed as Homo sapiens) [compound 327]”, the Peptide exchange entry is on record as “″+++″ (≧50% = +++)”. “73 (NIFDLQIYV; listed as Homo sapiens) [compound 73]”: the Peptide exchange result is “″+++″ (≧50% = +++)”. The result for “303 (AILPQLFMV; listed as Homo sapiens) [compound 303]” reads “″++++″ (≧75% = ++++)”; that for “441 (ALLENPKMEL; listed as Homo sapiens) [compound 441]”, “″+++″ (≧50% = +++)”. To “331 (KVDTVWVNV; listed as Homo sapiens) [compound 331]” belongs “″+++″ (≧50% = +++)”. In the case of “517 (LLMPIPEGLTL; listed as Homo sapiens) [compound 517]”, the Peptide exchange result is “″+++″ (≧50% = +++)”. On to “252 (LLIGTDVSL; listed as Homo sapiens) [compound 252]”, for which the Peptide exchange result is on record as “″+++″ (≧50% = +++)”. The result for “335 (YSLSSVVTV; listed as Homo sapiens) [compound 335]” reads “″+++″ (≧50% = +++)”; that for “76 (ILIDSIYKV; listed as Homo sapiens) [compound 76]”, “″+++″ (≧50% = +++)”. The result for “468 (YLRSVGDGETV; listed as Homo sapiens) [compound 468]” reads “″+++″ (≧50% = +++)”.

The values above are taken from patent publication US20170037111A1, “Novel peptides and combination of peptides for use in immunotherapy against ovarian cancer and other cancers” (immatics biotechnologies GmbH, priority 2015, published 2017).
